Among the targets are gors2_human GORASP2 (UniProt Q9H8Y8); dpyl3_human DPYSL3 (UniProt Q14195); lerl1_human LEPROTL1 (UniProt O95214); npal3_human NIPAL3 (UniProt Q6P499); lnx1_human LNX1 (UniProt Q8TBB1); ck068_human C11orf68 (UniProt Q9H3H3); cryaa_human CRYAA (UniProt P02489); phs_human PCBD1 (UniProt P61457); ei2ba_human EIF2B1 (UniProt Q14232); zmat1_human ZMAT1 (UniProt Q5H9K5); nasp_human NASP (UniProt P49321); bnip3_human BNIP3 (UniProt Q12983); BCL2L13 (UniProt Q9BXK5); ppla_human PLN (UniProt P26678); vatl_human ATP6V0C (UniProt P27449); mal_human MAL (UniProt P21145); emp3_human EMP3 (UniProt P54852); aakb2_human PRKAB2 (UniProt O43741); zbt24_human ZBTB24 (UniProt O43167); pacn1_human PACSIN1 (UniProt Q9BY11); pls1_human PLSCR1 (UniProt O15162); trip6_human TRIP6 (UniProt Q15654); cep70_human CEP70 (UniProt Q8NHQ1); elmo1_human ELMO1 (UniProt Q92556); zsc32_human ZSCAN32 (UniProt Q9NX65).

The next test deals with T1, dpyl5_human DPYSL5 (UniProt Q9BPU6).
T1 sequence: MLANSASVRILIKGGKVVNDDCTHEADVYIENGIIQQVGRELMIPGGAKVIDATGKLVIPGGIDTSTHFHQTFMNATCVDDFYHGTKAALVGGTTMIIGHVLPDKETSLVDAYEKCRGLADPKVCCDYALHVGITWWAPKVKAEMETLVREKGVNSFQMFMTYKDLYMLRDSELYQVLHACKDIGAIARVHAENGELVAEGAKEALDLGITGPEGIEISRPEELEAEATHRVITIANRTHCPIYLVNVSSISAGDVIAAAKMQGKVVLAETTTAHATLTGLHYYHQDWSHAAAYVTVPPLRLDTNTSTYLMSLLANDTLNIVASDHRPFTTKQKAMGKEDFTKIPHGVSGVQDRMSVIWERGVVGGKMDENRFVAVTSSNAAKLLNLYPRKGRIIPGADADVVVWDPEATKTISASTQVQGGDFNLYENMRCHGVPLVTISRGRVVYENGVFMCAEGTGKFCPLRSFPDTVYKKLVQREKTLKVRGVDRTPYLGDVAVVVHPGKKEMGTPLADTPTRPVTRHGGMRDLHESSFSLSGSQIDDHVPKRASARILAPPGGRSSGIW

The target of test [1] is dpyl2_human DPYSL2 (UniProt Q16555).
The next test has as its target T2, prdx3_human PRDX3 (UniProt P30048).
T2 sequence: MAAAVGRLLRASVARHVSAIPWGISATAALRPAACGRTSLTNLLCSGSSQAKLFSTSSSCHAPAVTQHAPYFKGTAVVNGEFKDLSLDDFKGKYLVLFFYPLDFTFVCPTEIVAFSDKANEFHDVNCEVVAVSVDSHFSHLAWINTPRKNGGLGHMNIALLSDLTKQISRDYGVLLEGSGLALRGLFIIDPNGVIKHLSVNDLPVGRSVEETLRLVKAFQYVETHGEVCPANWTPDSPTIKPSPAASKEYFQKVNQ

The next test has as its target T3, acy3_human ACY3 (UniProt Q96HD9).
T3 sequence: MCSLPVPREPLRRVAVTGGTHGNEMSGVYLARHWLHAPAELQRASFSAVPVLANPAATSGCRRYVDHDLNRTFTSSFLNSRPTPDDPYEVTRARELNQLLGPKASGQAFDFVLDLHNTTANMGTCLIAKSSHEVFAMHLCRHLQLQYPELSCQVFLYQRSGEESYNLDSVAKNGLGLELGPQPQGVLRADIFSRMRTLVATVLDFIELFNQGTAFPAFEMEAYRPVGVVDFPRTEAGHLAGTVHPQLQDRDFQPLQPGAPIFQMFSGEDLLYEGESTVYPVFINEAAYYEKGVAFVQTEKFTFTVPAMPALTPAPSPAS

A further test has as its target T4, dmc1_human DMC1 (UniProt Q14565).
T4 sequence: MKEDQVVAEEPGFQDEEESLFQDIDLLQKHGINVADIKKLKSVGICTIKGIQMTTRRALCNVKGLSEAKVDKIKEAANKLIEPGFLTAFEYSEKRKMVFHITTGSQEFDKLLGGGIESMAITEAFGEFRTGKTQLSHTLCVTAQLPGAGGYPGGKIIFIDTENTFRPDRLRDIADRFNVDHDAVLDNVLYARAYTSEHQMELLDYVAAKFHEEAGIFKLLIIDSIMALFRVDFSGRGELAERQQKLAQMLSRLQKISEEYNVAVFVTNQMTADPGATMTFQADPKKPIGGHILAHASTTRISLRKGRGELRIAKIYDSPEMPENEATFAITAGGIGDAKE

Test [2] concerns the target dpyl2_human DPYSL2 (UniProt Q16555). This is another data set of the same source.
The next test deals with T5, creb3_human CREB3 (UniProt O43889).
T5 sequence: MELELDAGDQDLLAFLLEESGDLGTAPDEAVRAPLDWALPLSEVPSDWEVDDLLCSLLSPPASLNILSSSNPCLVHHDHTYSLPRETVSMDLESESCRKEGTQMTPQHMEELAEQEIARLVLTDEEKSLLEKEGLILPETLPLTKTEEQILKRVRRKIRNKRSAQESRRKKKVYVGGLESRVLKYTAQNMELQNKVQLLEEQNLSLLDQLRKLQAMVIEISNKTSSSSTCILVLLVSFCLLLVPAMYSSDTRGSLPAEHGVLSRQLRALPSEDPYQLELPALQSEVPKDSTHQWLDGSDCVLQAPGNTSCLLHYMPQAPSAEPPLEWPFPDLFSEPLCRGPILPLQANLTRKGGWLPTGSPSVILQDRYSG

The next test deals with T6, traf4_human TRAF4 (UniProt Q9BUZ4).
T6 sequence: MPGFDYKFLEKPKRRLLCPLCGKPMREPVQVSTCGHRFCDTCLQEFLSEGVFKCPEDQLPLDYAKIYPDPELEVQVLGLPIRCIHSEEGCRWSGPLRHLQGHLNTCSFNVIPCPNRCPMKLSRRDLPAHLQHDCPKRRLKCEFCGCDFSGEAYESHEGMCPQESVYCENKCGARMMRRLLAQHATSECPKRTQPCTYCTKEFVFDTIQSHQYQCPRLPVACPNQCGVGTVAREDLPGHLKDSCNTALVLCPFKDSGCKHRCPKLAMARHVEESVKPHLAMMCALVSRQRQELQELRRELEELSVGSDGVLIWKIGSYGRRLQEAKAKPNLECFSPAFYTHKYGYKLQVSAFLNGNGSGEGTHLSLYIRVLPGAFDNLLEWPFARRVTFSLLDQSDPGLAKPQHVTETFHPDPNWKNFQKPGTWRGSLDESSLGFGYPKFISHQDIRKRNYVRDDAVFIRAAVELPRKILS

Chain of Isoform 1 of Ectodysplasin-A (Homo sapiens), Q92838-1 P118L (Q92838 whole entry P118L, canonical isoform): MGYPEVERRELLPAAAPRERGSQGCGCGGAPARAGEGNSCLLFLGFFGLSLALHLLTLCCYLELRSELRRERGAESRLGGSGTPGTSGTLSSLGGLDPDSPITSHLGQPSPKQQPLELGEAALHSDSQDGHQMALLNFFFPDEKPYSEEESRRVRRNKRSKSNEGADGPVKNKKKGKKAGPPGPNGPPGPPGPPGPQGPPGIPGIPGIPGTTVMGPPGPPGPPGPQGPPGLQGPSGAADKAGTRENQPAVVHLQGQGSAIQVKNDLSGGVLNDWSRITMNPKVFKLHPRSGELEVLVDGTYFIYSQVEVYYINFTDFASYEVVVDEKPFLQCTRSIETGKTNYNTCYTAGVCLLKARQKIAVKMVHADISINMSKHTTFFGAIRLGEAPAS
Chain of Ectodysplasin-A (Homo sapiens), Q92838 R334H (Q92838 whole entry R334H): as the sequence (Q92838 whole entry P118L, canonical isoform) above, with L118P, R334H counted along it
Chain of lnx1_human LNX1 (Q8TBB1 whole entry): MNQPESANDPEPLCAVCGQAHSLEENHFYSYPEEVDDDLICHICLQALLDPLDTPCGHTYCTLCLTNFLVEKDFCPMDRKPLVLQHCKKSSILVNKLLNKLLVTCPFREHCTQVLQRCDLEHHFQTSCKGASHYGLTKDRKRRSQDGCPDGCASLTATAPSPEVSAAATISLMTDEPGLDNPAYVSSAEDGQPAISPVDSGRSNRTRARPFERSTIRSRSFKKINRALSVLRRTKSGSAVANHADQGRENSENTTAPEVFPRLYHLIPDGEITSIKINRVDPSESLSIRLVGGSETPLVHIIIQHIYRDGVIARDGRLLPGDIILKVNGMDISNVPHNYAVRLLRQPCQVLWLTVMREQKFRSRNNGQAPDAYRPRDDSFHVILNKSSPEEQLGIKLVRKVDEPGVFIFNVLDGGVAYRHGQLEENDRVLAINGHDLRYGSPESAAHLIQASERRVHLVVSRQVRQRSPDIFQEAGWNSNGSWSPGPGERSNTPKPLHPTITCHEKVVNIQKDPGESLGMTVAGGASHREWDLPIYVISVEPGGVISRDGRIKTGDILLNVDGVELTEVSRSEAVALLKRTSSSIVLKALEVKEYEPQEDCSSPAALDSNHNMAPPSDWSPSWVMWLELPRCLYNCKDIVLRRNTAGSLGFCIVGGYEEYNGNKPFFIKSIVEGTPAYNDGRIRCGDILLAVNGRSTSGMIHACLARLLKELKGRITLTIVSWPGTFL
Chain of cryaa_human CRYAA (P02489 whole entry): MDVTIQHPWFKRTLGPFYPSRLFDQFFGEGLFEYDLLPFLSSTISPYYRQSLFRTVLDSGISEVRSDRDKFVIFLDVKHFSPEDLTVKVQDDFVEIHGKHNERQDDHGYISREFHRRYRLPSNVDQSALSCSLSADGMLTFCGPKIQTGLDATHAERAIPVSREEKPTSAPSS
Chain of nasp_human NASP (P49321 whole entry): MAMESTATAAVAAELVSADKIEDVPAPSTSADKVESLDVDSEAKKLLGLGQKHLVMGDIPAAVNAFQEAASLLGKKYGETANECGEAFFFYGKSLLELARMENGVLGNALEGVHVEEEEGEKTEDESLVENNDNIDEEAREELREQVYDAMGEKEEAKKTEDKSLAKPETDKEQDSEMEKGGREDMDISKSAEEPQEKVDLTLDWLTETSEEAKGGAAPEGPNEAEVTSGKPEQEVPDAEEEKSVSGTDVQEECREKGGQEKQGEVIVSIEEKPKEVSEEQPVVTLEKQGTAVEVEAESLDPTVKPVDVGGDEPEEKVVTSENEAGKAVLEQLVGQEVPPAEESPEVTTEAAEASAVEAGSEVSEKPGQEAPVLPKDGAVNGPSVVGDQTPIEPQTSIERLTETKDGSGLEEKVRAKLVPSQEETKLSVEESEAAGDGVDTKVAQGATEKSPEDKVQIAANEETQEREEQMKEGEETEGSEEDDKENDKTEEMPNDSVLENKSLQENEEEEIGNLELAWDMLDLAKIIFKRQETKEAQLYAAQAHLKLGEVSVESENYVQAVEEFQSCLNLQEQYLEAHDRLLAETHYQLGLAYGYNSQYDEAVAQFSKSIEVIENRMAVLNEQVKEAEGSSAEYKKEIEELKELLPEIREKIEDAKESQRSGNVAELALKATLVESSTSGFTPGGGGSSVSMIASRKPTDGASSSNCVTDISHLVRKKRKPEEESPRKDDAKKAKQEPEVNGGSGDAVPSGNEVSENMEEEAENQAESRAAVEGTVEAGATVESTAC
Chain of Regulator of G-protein signaling 3 (Homo sapiens), P49796-4 R528Q (P49796 other isoform, or with tags, fused parts or gaps R528Q): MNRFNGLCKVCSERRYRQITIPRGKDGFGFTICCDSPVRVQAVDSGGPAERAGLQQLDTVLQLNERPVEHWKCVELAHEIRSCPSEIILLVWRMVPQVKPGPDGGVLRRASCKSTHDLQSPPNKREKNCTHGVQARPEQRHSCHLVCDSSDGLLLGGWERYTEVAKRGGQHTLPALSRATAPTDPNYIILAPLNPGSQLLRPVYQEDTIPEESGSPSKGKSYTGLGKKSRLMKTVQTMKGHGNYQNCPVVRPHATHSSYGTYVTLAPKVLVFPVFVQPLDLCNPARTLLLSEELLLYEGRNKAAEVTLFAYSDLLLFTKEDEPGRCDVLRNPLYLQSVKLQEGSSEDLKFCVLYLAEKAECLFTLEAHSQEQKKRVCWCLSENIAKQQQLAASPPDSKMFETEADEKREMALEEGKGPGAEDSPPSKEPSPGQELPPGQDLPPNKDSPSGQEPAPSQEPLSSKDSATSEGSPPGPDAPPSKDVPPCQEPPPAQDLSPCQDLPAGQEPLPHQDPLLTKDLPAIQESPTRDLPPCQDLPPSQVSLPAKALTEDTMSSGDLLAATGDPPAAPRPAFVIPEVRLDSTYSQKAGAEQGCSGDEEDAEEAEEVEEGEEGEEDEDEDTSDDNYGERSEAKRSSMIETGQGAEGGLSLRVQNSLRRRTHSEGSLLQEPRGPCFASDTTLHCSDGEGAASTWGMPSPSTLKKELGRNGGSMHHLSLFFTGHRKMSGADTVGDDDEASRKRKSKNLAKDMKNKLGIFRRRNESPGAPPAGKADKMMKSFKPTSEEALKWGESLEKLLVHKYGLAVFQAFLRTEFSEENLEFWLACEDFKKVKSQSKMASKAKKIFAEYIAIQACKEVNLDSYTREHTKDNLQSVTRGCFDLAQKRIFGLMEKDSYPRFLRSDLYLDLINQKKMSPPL
Chain of trip6_human TRIP6 (Q15654 whole entry): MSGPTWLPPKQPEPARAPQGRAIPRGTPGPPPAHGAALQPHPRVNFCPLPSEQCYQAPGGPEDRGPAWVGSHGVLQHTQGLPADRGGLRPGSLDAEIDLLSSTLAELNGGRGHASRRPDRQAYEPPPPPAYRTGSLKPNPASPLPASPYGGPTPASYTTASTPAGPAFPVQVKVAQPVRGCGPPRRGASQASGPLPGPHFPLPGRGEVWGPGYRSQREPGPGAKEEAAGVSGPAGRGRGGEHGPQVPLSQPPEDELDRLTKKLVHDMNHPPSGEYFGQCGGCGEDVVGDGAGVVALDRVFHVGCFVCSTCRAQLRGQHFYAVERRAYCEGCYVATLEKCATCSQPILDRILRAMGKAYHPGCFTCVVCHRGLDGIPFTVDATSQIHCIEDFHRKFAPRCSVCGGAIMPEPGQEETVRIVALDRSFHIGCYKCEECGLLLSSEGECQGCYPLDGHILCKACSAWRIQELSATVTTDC
Chain of pacn1_human PACSIN1 (Q9BY11 whole entry): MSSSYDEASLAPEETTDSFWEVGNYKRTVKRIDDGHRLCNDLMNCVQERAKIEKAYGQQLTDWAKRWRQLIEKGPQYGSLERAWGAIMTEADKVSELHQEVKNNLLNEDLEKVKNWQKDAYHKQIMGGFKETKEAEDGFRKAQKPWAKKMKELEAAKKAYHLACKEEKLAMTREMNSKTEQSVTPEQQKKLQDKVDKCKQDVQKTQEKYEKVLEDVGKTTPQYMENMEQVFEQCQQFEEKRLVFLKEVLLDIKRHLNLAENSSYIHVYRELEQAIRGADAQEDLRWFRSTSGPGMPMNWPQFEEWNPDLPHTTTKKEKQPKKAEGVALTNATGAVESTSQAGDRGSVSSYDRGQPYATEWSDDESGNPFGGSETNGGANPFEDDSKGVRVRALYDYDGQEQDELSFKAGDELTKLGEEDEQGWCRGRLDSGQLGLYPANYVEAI
Chain of aakb2_human PRKAB2 (O43741 whole entry): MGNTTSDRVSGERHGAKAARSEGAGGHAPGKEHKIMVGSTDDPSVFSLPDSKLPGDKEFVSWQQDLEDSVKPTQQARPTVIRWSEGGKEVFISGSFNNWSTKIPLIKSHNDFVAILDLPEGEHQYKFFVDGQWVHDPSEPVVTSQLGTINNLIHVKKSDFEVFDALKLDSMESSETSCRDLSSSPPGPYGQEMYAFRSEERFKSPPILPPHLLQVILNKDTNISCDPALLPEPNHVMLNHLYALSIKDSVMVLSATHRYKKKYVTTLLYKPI
Chain of mal_human MAL (P21145 whole entry): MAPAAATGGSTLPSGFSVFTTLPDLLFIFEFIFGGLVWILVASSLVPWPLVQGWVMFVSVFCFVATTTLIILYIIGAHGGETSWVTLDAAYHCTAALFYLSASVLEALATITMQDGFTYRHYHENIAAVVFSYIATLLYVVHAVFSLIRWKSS
Chain of pls1_human PLSCR1 (O15162 whole entry): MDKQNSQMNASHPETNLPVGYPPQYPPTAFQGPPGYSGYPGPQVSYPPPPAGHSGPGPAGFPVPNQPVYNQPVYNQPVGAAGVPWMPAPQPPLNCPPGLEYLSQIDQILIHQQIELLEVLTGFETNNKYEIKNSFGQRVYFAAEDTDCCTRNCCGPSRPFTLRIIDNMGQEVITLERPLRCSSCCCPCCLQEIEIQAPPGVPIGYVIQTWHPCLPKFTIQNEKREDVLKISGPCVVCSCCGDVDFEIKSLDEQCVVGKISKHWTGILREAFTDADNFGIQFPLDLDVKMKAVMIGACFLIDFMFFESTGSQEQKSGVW
Chain of vatl_human ATP6V0C (P27449 whole entry): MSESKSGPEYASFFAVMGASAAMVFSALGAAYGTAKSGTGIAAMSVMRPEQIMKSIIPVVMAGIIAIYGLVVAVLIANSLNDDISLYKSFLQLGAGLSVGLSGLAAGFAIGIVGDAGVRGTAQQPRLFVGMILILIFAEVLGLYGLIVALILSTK
Chain of ppla_human PLN (P26678 whole entry): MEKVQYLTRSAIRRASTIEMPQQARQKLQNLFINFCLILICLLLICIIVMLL

As for “Dihydropyrimidinase-related protein 2 (Homo sapiens) (from UniProt Q16555-1) R481C”, the “effect of a mutation on the interaction” value with dpyl5_human DPYSL5 is on record as “with no effect”; with gors2_human GORASP2, “disrupting interaction strength”; with dpyl3_human DPYSL3, “disrupting interaction strength”; in the test with dpyl2_human DPYSL2 [1] it was “disrupting interaction strength”.
In the case of “Ectodysplasin-A (Homo sapiens), Q92838 R334H”, the “effect of a mutation on the interaction” value in the test with lerl1_human LEPROTL1 and with npal3_human NIPAL3 was “with no effect” each time.
For the substance “Eukaryotic translation initiation factor 4H (Homo sapiens), Q15056 G164V”, the “effect of a mutation on the interaction” value with lnx1_human LNX1 and in the test with ck068_human C11orf68 was “with no effect” each time.
“Golgi reassembly-stacking protein 2 (Homo sapiens) (from UniProt Q9H8Y8) S441C”: the “effect of a mutation on the interaction” value with cryaa_human CRYAA is recorded as “with no effect”; with phs_human PCBD1 it was “with no effect”; with prdx3_human PRDX3, “disrupting interaction strength”; with acy3_human ACY3, “with no effect”; with ei2ba_human EIF2B1, “with no effect”; in the test with dmc1_human DMC1, “with no effect”. Also, the “effect of a mutation on the interaction” value with zmat1_human ZMAT1 and in the test with dpyl2_human DPYSL2 [2] was “with no effect” in each case.
“Histone H3.3C (Homo sapiens) (from UniProt Q6NXT2) R53C”: the “effect of a mutation on the interaction” value with nasp_human NASP is given as “with no effect”.
For “Integral membrane protein 2B (Homo sapiens) (from UniProt Q9Y287) I237T”, the “effect of a mutation on the interaction” value in the test with bnip3_human BNIP3 is recorded as “with no effect”.
Regarding “Integral membrane protein 2B (Homo sapiens) (from UniProt Q9Y287) P31H”, the “effect of a mutation on the interaction” value with creb3_human CREB3 and with BCL2L13 was “with no effect” each time.
For the substance “Isoform 1 of Ectodysplasin-A (Homo sapiens), Q92838-1 P118L”, the “effect of a mutation on the interaction” value in the test with ppla_human PLN, with vatl_human ATP6V0C, with mal_human MAL and in the test with emp3_human EMP3 was “with no effect” in each case.
As for “Krueppel-like factor 15 (Homo sapiens), Q9UIH9 A199V”, the “effect of a mutation on the interaction” value in the test with aakb2_human PRKAB2 and with zbt24_human ZBTB24 was “with no effect” throughout.
Take “Large ribosomal subunit protein bL28m (Homo sapiens) (from UniProt Q13084) D160E”: the “effect of a mutation on the interaction” value in the test with traf4_human TRAF4 was “with no effect”.
For “Protein kinase C and casein kinase substrate in neurons protein 3 (Homo sapiens) (from UniProt Q9UKS6) A61V”, in the test with pacn1_human PACSIN1, the “effect of a mutation on the interaction” value was “disrupting interaction strength”.
Take “Regulator of G-protein signaling 3 (Homo sapiens), P49796-4 R528Q”: the “effect of a mutation on the interaction” value with pls1_human PLSCR1 is given as “with no effect”.
In the case of “Rho-related GTP-binding protein RhoQ (Homo sapiens), P17081 E68K”, the “effect of a mutation on the interaction” value with trip6_human TRIP6 is “with no effect”.
Take “Zinc finger protein 302 (Homo sapiens), Q9NR11 R391H”: the “effect of a mutation on the interaction” value with cep70_human CEP70 was “with no effect”.
Consider “Zinc finger protein 398 (Homo sapiens), Q8TD17 E87D”, for which the “effect of a mutation on the interaction” value in the test with elmo1_human ELMO1 was “with no effect”.
With “Zinc finger protein with KRAB and SCAN domains 1 (Homo sapiens), P17029 R155K”, in the test with zsc32_human ZSCAN32, the “effect of a mutation on the interaction” value was “with no effect”.

For the origin of these results see IntAct's records for PubMed 31515488.
